± gives the uncertainty stated by the source.
Test: self-splicing fitness, log relative to wild type (ln ratio); higher = more splicing; Tetrahymena group I intron in knt gene, E. coli kanamycin selection, DiMSum; sequences stand for … in CUCUCU…GGAGGGAAAAGUUAUCAGGCAUGCACCUGGUAGCUAGUCUUUAAACCAAUAGAUUGCAUCGGUUUAAAAGGCAAGACCGUCAAAUUGCGGGAAAGGGGUCAACAGCCGUUCAGUACCAAGUCUCAGGGGAAACUUUGAGAUGGCCUUGCAAAGGGUAUGGUAAUAAGCUGACGGACAUGGUCCUAACCACGCAGCCAAGUCCUAAGUCAACAGAUCUUCUGUUGAUAUGGAUGCAGUUCACAGACUAAAUGUCGGUCGGGGAAGAUGUAUUCUUCUCAUAAGAUAUAGUCGGACCUCUCCUUAAUGGGAGCUAGCGGAUGAAGUGAUGCAACACUGGAGCCGCUGGGAACUAAUUUGUAUGCGAAAGUAUAUUGAUUAGUUUUGGAGUACUCGUGGUCG
Summary of the method: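 The eight P1ex-region nucleotides of an intron in the knt kanamycin-resistance gene on pET-22b(+) were all randomised and the library put into E. coli BL21(DE3). Six replicate transformations were grown overnight at 37°C or 30°C on LB agar with or without 25 μg/mL kanamycin, together with 100 μg/mL carbenicillin, 50 μM IPTG and 0.2% rhamnose. Colonies were pooled and amplicon-sequenced on an Illumina HiSeq 2500. Fitness from DiMSum is the error-weighted combination of wild-type-normalised replicate fold changes, kanamycin over none.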

Row | Sequence | self-splicing fitness (ln) (30 °C) | self-splicing fitness (ln) (37 °C)
1 | UGGAAGCAAUAUUACGUUGC | -4.13 ± 0.47 | -3.11 ± 0.4
2 | UGGAAGCAAUAUUACGUUGG | -2.69 ± 0.19 | -0.902 ± 0.14
3 | UGGCAGCAAUAUUACGACGU | -1.84 ± 0.16 | -0.565 ± 0.2
4 | UGGCAGCAAUAUUACGACUC | -1 ± 0.1 | -1.1 ± 0.12
5 | UGGCAGCAAUAUUACGAUAC | -3.31 ± 0.48 | -1.99 ± 0.38
6 | UGGCAGCAAUAUUACGAUUU | -1.66 ± 0.086 | -0.484 ± 0.1
7 | UGGCAGCAAUAUUACGCAGA | -1.21 ± 0.14 | -0.916 ± 0.12
8 | UGGCAGCAAUAUUACGCAGG | -2.79 ± 0.16 | -1.23 ± 0.12
9 | UGGCAGCAAUAUUACGCCAG | -1.46 ± 0.14 | -1.59 ± 0.21
10 | UGGCAGCAAUAUUACGCCGG | -1.64 ± 0.14 | -0.838 ± 0.2
11 | UGGCAGCAAUAUUACGGAAC | -2.89 ± 0.36 | -1.72 ± 0.21
12 | UGGCAGCAAUAUUACGGAAG | -1.78 ± 0.13 | -0.447 ± 0.12
13 | UGGCAGCAAUAUUACGGGUG | -0.883 ± 0.071 | -0.596 ± 0.088
14 | UGGCAGCAAUAUUACGGUAA | -0.651 ± 0.089 | 0.0797 ± 0.093
15 | UGGCAGCAAUAUUACGGUCU | -0.537 ± 0.066 | 0.29 ± 0.087
16 | UGGCAGCAAUAUUACGUACG | -0.616 ± 0.077 | -0.265 ± 0.12
17 | UGGCAGCAAUAUUACGUGUA | -1.54 ± 0.089 | -0.712 ± 0.084
18 | UGGGAGCAAUAUUACGAAAU | -1.47 ± 0.19 | 
19 | UGGGAGCAAUAUUACGAACG | -1.07 ± 0.1 | -0.54 ± 0.16
20 | UGGGAGCAAUAUUACGAGAU | -1.91 ± 0.27 | -2.04 ± 0.47
21 | UGGGAGCAAUAUUACGAUCC | -1.41 ± 0.39 | 
22 | UGGGAGCAAUAUUACGAUGA |  | -1.63 ± 0.42
23 | UGGGAGCAAUAUUACGCCCA | -1.61 ± 0.4 | 
24 | UGGGAGCAAUAUUACGCCUU | -2.66 ± 0.26 | -1.66 ± 0.31
25 | UGGGAGCAAUAUUACGCGGC | -2.57 ± 0.34 | -1.35 ± 0.28

Row | Sequence | self-splicing fitness (ln) (30 °C) | self-splicing fitness (ln) (37 °C)
26 | UGGGAGCAAUAUUACGCUCC |  | -2.7 ± 0.44
27 | UGGGAGCAAUAUUACGCUGU |  | -1.2 ± 0.41
28 | UGGGAGCAAUAUUACGGCAA | -2.97 ± 0.47 | -0.863 ± 0.32
29 | UGGGAGCAAUAUUACGGGAG | -2.83 ± 0.25 | -2.94 ± 0.43
30 | UGGGAGCAAUAUUACGGGGC | -2.62 ± 0.48 | -2.07 ± 0.34
31 | UGGGAGCAAUAUUACGGUAA | -2.32 ± 0.45 | 
32 | UGGGAGCAAUAUUACGGUCA | -0.375 ± 0.12 | -0.291 ± 0.14
33 | UGGGAGCAAUAUUACGGUUC |  | -0.762 ± 0.44
34 | UGGGAGCAAUAUUACGUGAC |  | -2.53 ± 0.44
35 | UGGGAGCAAUAUUACGUUAU | -3.22 ± 0.27 | -1.86 ± 0.34
36 | UGGGAGCAAUAUUACGUUGG | -3.45 ± 0.22 | -2.85 ± 0.26
37 | UGGGAGCAAUAUUACGUUUU | -4.43 ± 0.4 | -2.51 ± 0.33
38 | UGGUAGCAAUAUUACGAAAU | -2.72 ± 0.28 | -3.17 ± 0.31
39 | UGGUAGCAAUAUUACGAAUG | -1.95 ± 0.12 | -1.02 ± 0.12
40 | UGGUAGCAAUAUUACGAGUC |  | -2.29 ± 0.32
41 | UGGUAGCAAUAUUACGAGUU | -2.91 ± 0.24 | -2.75 ± 0.24
42 | UGGUAGCAAUAUUACGAUAG | -1.94 ± 0.2 | -0.14 ± 0.14
43 | UGGUAGCAAUAUUACGCAAA | -2.06 ± 0.29 | -1.59 ± 0.17
44 | UGGUAGCAAUAUUACGCAGU | -3.14 ± 0.4 | -2.76 ± 0.4
45 | UGGUAGCAAUAUUACGCAUG | -1.33 ± 0.1 | 0.872 ± 0.14
46 | UGGUAGCAAUAUUACGCAUU | -1.88 ± 0.15 | -1.66 ± 0.19
47 | UGGUAGCAAUAUUACGCGCC | -1.45 ± 0.3 | -2.02 ± 0.42
48 | UGGUAGCAAUAUUACGCGGA | -1.86 ± 0.15 | -0.911 ± 0.17
49 | UGGUAGCAAUAUUACGCUAA | -1.37 ± 0.14 | -0.667 ± 0.16
50 | UGGUAGCAAUAUUACGGAUC | -2.25 ± 0.23 | -1.65 ± 0.32

Row | Sequence | self-splicing fitness (ln) (30 °C) | self-splicing fitness (ln) (37 °C)
51 | UGGUAGCAAUAUUACGGCAC |  | -1.39 ± 0.44
52 | UGGUAGCAAUAUUACGGCUC | -0.912 ± 0.12 | -0.984 ± 0.14
53 | UGGUAGCAAUAUUACGGGUG | -1.26 ± 0.1 | -0.609 ± 0.08
54 | UGGUAGCAAUAUUACGGUCC | -2.05 ± 0.29 | -1.24 ± 0.33
55 | UGGUAGCAAUAUUACGGUCG | -0.382 ± 0.12 | -0.0256 ± 0.16
56 | UGGUAGCAAUAUUACGUAGU | -3.23 ± 0.22 | -1.04 ± 0.18
57 | UGGUAGCAAUAUUACGUGCA | -0.653 ± 0.11 | -1.27 ± 0.1
58 | UGGUAGCAAUAUUACGUGGC | -3.64 ± 0.32 | -3.04 ± 0.34
59 | UGGUAGCAAUAUUACGUGUA | -2.09 ± 0.13 | -0.721 ± 0.1
60 | UGGUAGCAAUAUUACGUUAU | -3.29 ± 0.28 | -3.33 ± 0.31
61 | UGGUAGCAAUAUUACGUUCU | -1.48 ± 0.12 | -0.725 ± 0.14
62 | UGUAAGCAAUAUUACGAAAA | -1.7 ± 0.15 | -1.15 ± 0.16
63 | UGUAAGCAAUAUUACGAAAU | -2.47 ± 0.18 | -0.0192 ± 0.17
64 | UGUAAGCAAUAUUACGAAGU | -3.23 ± 0.47 | -2.46 ± 0.35
65 | UGUAAGCAAUAUUACGACCG | 0.431 ± 0.12 | 0.133 ± 0.18
66 | UGUAAGCAAUAUUACGCACG | -0.966 ± 0.092 | -0.234 ± 0.11
67 | UGUAAGCAAUAUUACGCAGU | -2.92 ± 0.22 | -2.22 ± 0.24
68 | UGUAAGCAAUAUUACGCAUU | -3.58 ± 0.28 | -2.08 ± 0.24
69 | UGUAAGCAAUAUUACGCCAA | -2.77 ± 0.26 | -1.34 ± 0.2
70 | UGUAAGCAAUAUUACGCCAG | -1.82 ± 0.34 | -1.07 ± 0.33
71 | UGUAAGCAAUAUUACGCCUG | 0.084 ± 0.088 | -0.11 ± 0.1
72 | UGUAAGCAAUAUUACGCGAU | -3.35 ± 0.29 | -1.25 ± 0.21
73 | UGUAAGCAAUAUUACGCUCA | -0.207 ± 0.11 | 0.681 ± 0.18
74 | UGUAAGCAAUAUUACGCUGG | -1.24 ± 0.15 | -1.85 ± 0.19
75 | UGUAAGCAAUAUUACGGAGC | -2.11 ± 0.33 | 

Row | Sequence | self-splicing fitness (ln) (30 °C) | self-splicing fitness (ln) (37 °C)
76 | UGUAAGCAAUAUUACGGAGU | -2.24 ± 0.22 | -1.58 ± 0.33
77 | UGUAAGCAAUAUUACGGAUA | -1.38 ± 0.11 | -1.27 ± 0.12
78 | UGUAAGCAAUAUUACGGAUC | -1.45 ± 0.18 | -0.457 ± 0.36
79 | UGUAAGCAAUAUUACGGCAA | -0.056 ± 0.1 | 0.0443 ± 0.12
80 | UGUAAGCAAUAUUACGGCUG | 0.2 ± 0.1 | -0.152 ± 0.11
81 | UGUAAGCAAUAUUACGGGAA | -2.12 ± 0.17 | -2.08 ± 0.18
82 | UGUAAGCAAUAUUACGGGAG | -3.47 ± 0.24 | -1.94 ± 0.25
83 | UGUAAGCAAUAUUACGGGGC | -3.63 ± 0.23 | -3.24 ± 0.25
84 | UGUAAGCAAUAUUACGGUAG | -2.05 ± 0.12 | -1.34 ± 0.13
85 | UGUAAGCAAUAUUACGGUGA | -2.08 ± 0.11 | -0.909 ± 0.13
86 | UGUAAGCAAUAUUACGGUGG | -3.54 ± 0.19 | -1.27 ± 0.13
87 | UGUAAGCAAUAUUACGUAUC | -3.17 ± 0.23 | -2.13 ± 0.24
88 | UGUAAGCAAUAUUACGUCAA | -2.57 ± 0.18 | -0.839 ± 0.16
89 | UGUAAGCAAUAUUACGUCGA | -1.42 ± 0.1 | -0.213 ± 0.12
90 | UGUAAGCAAUAUUACGUCGC | -3.46 ± 0.33 | -1.65 ± 0.2
91 | UGUAAGCAAUAUUACGUGGU | -3.15 ± 0.13 | -3.76 ± 0.27
92 | UGUCAGCAAUAUUACGAACG | -0.137 ± 0.086 | 0.589 ± 0.11
93 | UGUCAGCAAUAUUACGAGCC | -1.74 ± 0.24 | -0.631 ± 0.27
94 | UGUCAGCAAUAUUACGAGCU | -0.801 ± 0.088 | -0.417 ± 0.11
95 | UGUCAGCAAUAUUACGAUAC | -2.92 ± 0.24 | -2.41 ± 0.22
96 | UGUCAGCAAUAUUACGAUCG | 0.238 ± 0.098 | 0.647 ± 0.12
97 | UGUCAGCAAUAUUACGAUGA | 0.232 ± 0.075 | 0.333 ± 0.09
98 | UGUCAGCAAUAUUACGAUGG | -0.3 ± 0.073 | 0.195 ± 0.098
99 | UGUCAGCAAUAUUACGAUGU | -1.36 ± 0.073 | -0.317 ± 0.093

— the supplement of paper PMC7877785
